Test system: MS2 coat protein
Assay: apparent KD of MS2 coat protein; designed switch direction (-1 OFF switch, 1 ON switch): -1; higher = weaker reporter binding
Outline: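 RNA switches sharing common flanks were transcribed by stalled E. coli RNA polymerase on Illumina chips. A doubling series of SNAP-549-labelled MS2 coat protein, from 0.7 or 1.5 nM to 3 µM, was applied in Tris-HCl pH 7.5 buffer with KCl, MgCl2, BSA, DTT, tRNA and Tween-20. Each step lasted 0.8–1.5 h at the bottom of the series and 10–20 min at the top. Normalised cluster fluorescence was curve-fitted, giving apparent KD as the per-design median over clusters.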

[1] = Eterna round: R95, input ligand: FMN 200 uM
[2] = Eterna round: R95, input ligand: microRNA oligo, concentration not stated
[3] = Eterna round: R95, input ligand: none
[4] = input ligand: microRNA oligo, concentration not stated

Sequence	apparent KD of MS2 coat protein (input ligand: FMN 200 uM) [nM]	apparent KD of MS2 coat protein (input ligand: none) [nM]	apparent KD of MS2 coat protein [2] [nM]	apparent KD of MS2 coat protein [4] [nM]	also measured
AAAUAAUGAGGAUAUACAGUGUAAAACAUGAGGAUCACCCAUGUUCUUCAAUUAGUAUUUGUAGAAGGCAUAGGUA [JR_Ex5_Sub094] (Eterna round: R97, puzzle: Exclusion 5)	38.5	60.7	–	–	–
AAUAACAAGUAAGAUCCUAACAUGAGGAUCACCCAUGUGCUCGUCUUGUAAAGUACUAUCACGAAAGUGAUAGUACA [Sensor 3, v1 - 51] (puzzle: Sensor v3, turn-off variant 1)	–	–	295	–	apparent KD of MS2 coat protein [1]: 48.3 nM; apparent KD of MS2 coat protein [3]: 54.7 nM
AAGGAUAGAGGAUAUACAUAGAUACAGAUUCAUGUAGAACUACAUGAGGAUCACCCAUGUAGAAGGCUAUCCUA [Mat - Same state - Mayanna Mod - D121] (Eterna round: R96, puzzle: Exclusion 2)	316	33.3	–	24.8	–
ACAUGUAAUGCAGGAUAUGGGACACAUGAGGAUCACCCAUGUGACCAUAUGUAAUGCUAAGAGUCUCAGAAGGGUAUGUACAUG [Ex NG2 #46] (Eterna round: R96, puzzle: Exclusion NG 2)	15.2	12.9	–	7.56	–
UUUAAUUUUUUUUUUUUACAAGCUUUUUGCUCGUCUUAUACAUGAGGAUCACCCAUGUGAGUGGAAGAUAAAUUAUC [JMF 11] (puzzle: Sensor v3, turn-off variant 2)	–	–	15	–	apparent KD of MS2 coat protein [1]: 15.1 nM; apparent KD of MS2 coat protein [3]: 17.9 nM
CUGUUUUUCGCAGGAUAUGCUCCUCCUUUAUUAGCAGAAGGGCGUUAAACAUGAGGAUCACCCAUGUAUGGUAAUGACAUUUUC [JR_ExcNG1_Sub062] (Eterna round: R96, puzzle: Exclusion NG 1)	–	–	–	29.8	–
GUAGAGUCAGGAUAUACAAGAUCGAAAGAUCGAAGAUCCAUACAUGAGGAUCACCCAUGUAGAAGGGACUCUAC [ChP 11-04-2015 #3] (puzzle: Exclusion 2)	–	–	16.9	–	–
UAUUAACAAGCAAGAUCCUACAUGAGGAUCACCCAUGUGCUCGUCUUGUAAGGUACUGUGACGAAAGUCACGGUACC [Sensor 3, v1 - 71] (puzzle: Sensor v3, turn-off variant 1)	–	–	232	–	apparent KD of MS2 coat protein [1]: 22 nM; apparent KD of MS2 coat protein [3]: 18.9 nM
GCCGAAUAAGUGAGGAUAUACCUAUGGAUACAUAGGUAGAAGGCACAUGAGGAUCACCCAUGUACCUCAACGGC [JL-BMX4-4.16 Eli mod] (Eterna round: R97, puzzle: Brourd's mod of Exclusion 4)	34.5	14.8	–	–	–
AGCUGUGGCCGAGGAUAUCUAGCUUCAAUAACCGAAAUAUAAUCGGACAUGAGGAUCACCCAUGUAGAGAAGGCGGUCUCAGCA [Eli eng2 - 084] (Eterna round: R96, puzzle: Exclusion NG 2)	–	–	–	22.3	–
AUUUUGUGAGGAUAUUAGUUGUAGAAAAUUGUUAGUAUAGCUGAGAAGGCACAUGAGGAUCACCCAUGUACAAC [JR_Ex4_Sub040] (Eterna round: R97, puzzle: Exclusion 4)	31.1	18.1	–	–	–
AAAAGGCGAGGAUAUCCGGGCACGGACAUGAGGAUCACCCAUGUGACCUCGCCCGGCGGAGGAGAAGGCGCCGAAG [Biestein] (Eterna round: R97, puzzle: Exclusion 5)	368	158	–	–	–
CCAGCGUGUGUGAGGAUAUGCUGGUCCUUGGAUCAGCAGAAGGCACAUGAGGAUCACCCAUGUGAGGACGUUGG [JL bmx4 3.32] (puzzle: Brourd's mod of Exclusion 4)	–	–	19.9	–	–
UUCGUACAGCAAAGCUGUACGCGUACAUGAGGAUCACCCAUGUAGGAUAUGGUAGGCAAAGCUUACUAGAAGGAUAGAGUGAUC [Mat - Exclusion NG 3 - Mod of JL - D76] (Eterna round: R96, puzzle: Exclusion NG 3)	593	582	–	290	–
GCAGCAUAUGUAGGAUAUCUGCACGUGUAGUGCAGAGAAGGACAUGAGGAUCACCCAUGUAAUUAAGAUCAAUUAUUAAGCUGC [ENG1/4-A3] (Eterna round: R96, puzzle: Exclusion NG 1)	37.7	22.2	–	17.3	–
UUUUUACAUGAGGAUCACCCAUGUCAGGAUAUCCUUAUAUUUUAUUAUUUUAUUUUUUGGAGAAGGGACUAUUA [My solution] (puzzle: Exclusion 1)	–	–	297	–	–
UGUACGAUGCGUGCUGACAUGCGUCGUGCAGCAGGUGGAACAUGAGGAUCACCCAUGUCCUCAUUUGCUCGUCUUGU [SL-sv3-2.10 JL mod] (puzzle: Sensor v3, turn-off variant 2)	–	–	140	–	apparent KD of MS2 coat protein [1]: 54.7 nM; apparent KD of MS2 coat protein [3]: 52.3 nM
GCAAGCUUUUGCUCGCCUUACAUGAGGAUCACCCAUGUGGGCCCGGGCCCGGGCCCGCCGGGCCCGGGCCCGGGCCC [-59.4, -80.7 kcal, A 10%] (Eterna round: R97, puzzle: Sensor, turn-off variant 1)	26.5	32.2	–	–	–

Sequence	apparent KD of MS2 coat protein (input ligand: FMN 200 uM) [nM]	apparent KD of MS2 coat protein (input ligand: none) [nM]	apparent KD of MS2 coat protein [2] [nM]	apparent KD of MS2 coat protein [4] [nM]	also measured
GAUCCUUCUGUUAGGAUAUGCUUCGGGCUUCCGCUGCAGAAGGAACAUGAGGAUCACCCAUGUCAAAUAAAAUC [JL-BMX4-4.38 ViennaUCT mod] (Eterna round: R97, puzzle: Brourd's mod of Exclusion 4)	48.5	17.8	–	–	–
CCGCUGCAAGGAUAUACUUGCGGUGGUGCUCGAGUUCUUCUACUUGAGGAUCACCCAAGUAGAAGGUGCAAAAC [jl-ex2.4.57 ViennaUCT mod] (Eterna round: R97, puzzle: Exclusion 2)	34.4	17.1	–	–	–
ACUAGAUGAGGAUAUGCAUAUUUUCGUGUUCUUCUAGGUUAACAUGAGGAUCACCCAUGUAGAAGGCGUCUAUA [Exclusion 2 - 22] (puzzle: Exclusion 2)	–	–	21.3	–	–
ACAUGAGGAUCACCCAUGUAAUGAUGGGUACUAUAUUAUUCGUAGGAUAUCGUUGUUAGUUUGUGCGAGAAGGACGAUUGCUUU [JR_ExcNG3_Sub057] (Eterna round: R96, puzzle: Exclusion NG 3)	–	–	–	733	–
UCACGGGACUGAGGAUAUACAUGAACUAUUUUUGUAGAAGGCAGAAUGUUAGAUUAUACACUAAACAUGAGGAUCACCCAUGUU [JR_ExcNG1_Sub024] (Eterna round: R96, puzzle: Exclusion NG 1)	–	–	–	15.1	–
AGUGUGUGGCAGGAUAUGCGAUUUGUAAGUAUUGCAGAAGGGUCUACAUGAGGAUCACCCAUGUGUGCGGUUGA [Ex6 #25] (Eterna round: R97, puzzle: Exclusion 6)	947	469	–	–	–
AUGGGACAUGAGGAUCACCCAUGUCAGGAUAUGCUCUGAUGCGGCGUACGCCGUGCUAGCAGAAGGGACUACCU [EX1 C.19] (Eterna round: R97, puzzle: Exclusion 1)	29	28	–	–	–
GAAGAGACAGGAUAUACAUGAGGAUCACCCAUGUGAGUAUGUUGGAGGCGGAGGAGAUGUAGAAGGGUCAAAGA [JR_Exclu3_Sub018] (puzzle: Exclusion 3)	–	–	23.9	–	apparent KD of MS2 coat protein [1]: 36.3 nM; apparent KD of MS2 coat protein [3]: 29.7 nM
GGUGAAGCAGGAUAUGUAUCGGCAUACAUGAGGAUCACCCAUGUCAUGUAGAUACCGCAUAUAGAAGGGCUUCACC [Exclusion 5 (FMN-MS2 slide v.5)] (Eterna round: R97, puzzle: Exclusion 5)	41.1	16.9	–	–	–
CUAGAUCUUCGGAUCUAGUACAUGAGGAUCACCCAUGUGACGAGUAUAUCCUCAAACAAGCUUUUUGCUCGUCUUAU [Sensor v3 - Turn-off variant 1 - 21] (puzzle: Sensor v3, turn-off variant 1)	–	–	237	–	apparent KD of MS2 coat protein [1]: 243 nM; apparent KD of MS2 coat protein [3]: 172 nM
ACAUGAGGAUCACCCAUGUAAUGAAGGGUACUAUACUAAACGUAGGAUAUCGAUGUAAGAUUGAACGAGAAGGACGAUUGCCUU [JR_ExcNG3_Sub050] (Eterna round: R96, puzzle: Exclusion NG 3)	55.9	72.8	–	42	–
CAUUAUGUUGAGGAUAUGCGCCGGAAAACUGACGCAGAAGGCGACACAUGAGGAUCACCCAUGUCAGUUUUCGA [salish99_ex6_r004_426] (Eterna round: R97, puzzle: Exclusion 6)	136	273	–	–	–
CUUUUGUGAGGAUAUCAGUAGUAAAUAAAUAAUAUUACUACUGAGAAGGCACAUGAGGAUCACCCAUGUUCCUC [salish99_ex3_r3_083] (Eterna round: R96, puzzle: Exclusion 4)	385	45.3	–	39	–
UUUAGUUCAGGAUAUGUAGAAUUUAACAUGAGGAUCACCCAUGUAGAUCCUGAAUUAACUACAGAAGGGAACAUUU [Exclusion 5: 2:a mod2] (Eterna round: R97, puzzle: Exclusion 5)	69.1	15.2	–	–	–
UAUAUAUAGUAAGGAUAUGUAGUUAUUUUAUAAACAGAAGGUACUGACAUGAGGAUCACCCAUGUUUUAGUGUGGGCAUGUAGA [JMF's solution 6] (Eterna round: R96, puzzle: Exclusion NG 1)	–	–	–	71.1	–
AACAUGUAAGGAUAUAAAAGAAGGAGUACAAAGCCCUCCUAUUAGAAGGUACAUGAGGAUCACCCAUGUGGCGG [Eternabot (L2) Solution 96] (Eterna round: R97, puzzle: Exclusion 4)	336	57.1	–	–	–
UUGUACAUAGGAUAUAGUUGUUUCUACAUGAGGAUCACCCAUGUUAUUCCUCUCUCCCUUCUAGAAGGAUGUUUUU [JR_E5_Sub006] (puzzle: Exclusion 5)	–	–	43.6	–	–

From the supplement of paper PMC9170038
